US20040186044A1, “Modulation of myelination by interaction with P75 and TRK receptors” (priority 2002, published 2004)

Key:
[1] = test system: Schwann cell/neuronal cocultures; assay: Western blot of myelin proteins MAG and P0 in Schwann cell/DRG neuronal cocultures; format: cell-based, rat
Description: (§1) Dorsal Root Ganglia (DRG) Neuronal Schwann Cell Cocultures. Purified neuronal and Schwann cell cultures were prepared as previously described. Neuronal cultures were established from DRG neurons obtained from Sprague-Dawley rat embryos at 15 days gestation (Simonsen Laboratories, Gilroy, Calif.). DRG neurons were dissociated and plated onto collagen coated coverslips. Nonneuronal cells were eliminated by cycling (three 2-day cycles) with a fluorodeoxyuridine-containing medium (10 μM). NGF-dependent neurons were then maintained for 1 week in a medium consisting of 10% FBS in MEM and 100 ng/ml of NGF.
(§2) Schwann cells were isolated from the sciatic nerve of 4-day-old rat pups. Schwann cells were purified by using cytosine arabinoside and Thy-1.1 antibody mediated lysis of the fibroblasts (the anti-Thy-1.1 antibody was obtained from the American Type Culture Collection). Approximately 100,000 purified Schwann cells were than seeded onto purified neuronal cultures of ˜50,000 cells and allowed to proliferate and ensheath the axons (˜1 week). Myelination was then initiated with the addition of ascorbic acid (50 μg/ml), which was replenished with feeding every 2 to 3 days.
(§3) Western Blot Analysis. Samples from Schwann cell/neuronal co-cultures and sciatic nerves were prepared for Western blot analysis by homogenization in radioimmunoprecipitation assay (RIPA) buffer [PBS with 1% Nonidet P-40/0.5% deoxycholate/0.1% SDS/1 mM PMSF/Complete protease inhibitor tablets (Roche Molecular Biochemicals)] followed by high-speed centrifugation. Protein determination was made by using the Bicinchoninic Acid Kit (Sigma). Equivalent amounts of total protein extract from each sample were mixed with sample buffer, boiled, and loaded onto SDS polyacrylamide gels. Electrophoretic separation of the extracts was typically performed on 10-15% (depending on the molecular weight of the protein of interest) discontinuous acrylamide gels under denaturing conditions. The proteins were then transferred to pure nitrocellulose membranes (PROTRAN BA85, Schleicher and Schuell, 0.45 μm) and probed with specific antibodies. The mouse monoclonal anti-myelin-associated glycoprotein (MAG; Chemicon) was used at a concentration of 2.5 μg/ml (under nonreducing conditions); the mouse monoclonal anti-P0 antibody was used at a dilution of 1:5,000. All primary antibodies were incubated overnight at 4° C. Secondary HRP-conjugated anti-mouse IgG and anti-rabbit IgG antibodies were used at a dilution of 1:10,000 (Jackson ImmunoResearch). The blots were developed by chemiluminescence (Renaissance, DuPont_NEN) as described by the manufacturer. All of the blots were imaged and quantitated in the linear range for the corresponding antibodies. Protein concentrations of the samples were serial diluted until linear intensities were achieved. In many instances, the blots were stripped and reprobed with different antibodies.

[2] = test system: Schwann cell/neuronal cocultures; assay: P0 immunocytochemistry of mature myelin internodes in Schwann cell/neuronal cocultures; format: cell-based; details: for Schwann cell proliferation and morphology of ensheathed Schwann cells / cell death (neurofilament and nuclear staining): 100 ng/ml; for formation of mature myelin internodes (P0 immunostaining): BDNF, TrkB-Fc, TrkC-Fc 1 μg/ml, added at day of induction, 6 days after induction
Description: as §1, §2
Immunocytochemistry. Cocultures were fixed in 4% paraformaldehyde before dehydration through a graded ethanol series (50, 70, 90, and 100%). Samples were then permeabilized and blocked by incubation with 20% normal goat serum or 10% FCS. Primary antibodies included the mouse monoclonal anti-P0 antibody used at a dilution of 1:500 and the mouse monoclonal anti-MAG at a concentration of 2.5 μg/ml. The Texas red-conjugated anti-mouse IgG (Jackson ImmunoResearch) was used as a secondary antibody at a dilution of 1:1,000. Cellular nuclei were examined by using the Hoechst dye. Samples were mounted and fluorescence microscopy was accomplished by using a Nikon Microphot FXA.

[3] = test system: SC/DRG cocultures; assay: TUNEL analysis of neuronal or glial survival in SC/DRG cocultures; format: cell-based, rat; details: added at the start of myelination
[4] = test system: sciatic nerve; assay: Western blot of MAG and P0 in developing sciatic nerve after s.c. injection of newborn mice; format: in vivo, mouse; details: for P0 and MAG protein expression, wild-type mice: newborn wild-type mice, Western-blot 4 days later
Description: as §3
(§4) Injections in Mouse Sciatic Nerve. BDNF, NT3, TrkB-Fc, and TrkC-Fc (3 μg each; Regeneron Pharmaceuticals) were injected s.c. starting from the caudal portion of the greater trochanter region and running parallel along the sciatic nerve (total volume of 5 μl). T he contralateral leg served as a control for each factor with the injection of saline. Injections were performed on 1-day-old mouse pups (C57BU6, Simonsen Laboratories) and the sciatic nerves were extracted and processed 48 h later. A second set of mice were reinjected with the factors and then examined after an additional 48 h (4 days of total treatment). Nerves used for electron microscopy were trimmed and incisions were made at the flexure of the greater trochanter. In total, 11 animals were analyzed after injection with BDNF, 12 with TrkB-Fc, 11 with NT3, and 7 with TrkC-Fc.

[5] = test system: sciatic nerve of p75NTR -/- mice; assay: Western blot of P0 and MAG in sciatic nerve of injected newborn p75NTR -/- mice; format: in vivo, mouse; details: Western-blot 4 days later
Description: (§5) (A-B) Newborn wild-type and p75^NTR −/− mice were injected with BDNF (wild-type, n=10; p75^NTR −/−, n=25) and NT3 (wild-type, n=13; p75^NTR −/−, n=14) or the scavengers TrkB-Fc (wild-type, n=13; p75^NTR −/−, n=20) and TrkC-Fc (wild-type, n=14; p75^NTR −/−, n=20) and the levels of (A) P0 and (B) MAG were analyzed by Western-blot 4 days later. Asterisks: p<0.01. (C-D) Wild-type and p75^NTR −/− SC/DRG cocultures were established from E13 mouse embryos obtained through crossing heterozygous (p75^NTR +/−) mice. Levels of (C) P0 and (D) MAG were determined by Western-blot six days after initiation of myelination in the presence of the different factors. Asterisks: p<0.01.

[6] = test system: wild-type SC/DRG cocultures; assay: Western blot of P0 and MAG in wild-type mouse SC/DRG cocultures; format: cell-based; details: six days after initiation of myelination
Description: as §5

[7] = test system: p75NTR -/- SC/DRG cocultures; assay: Western blot of P0 and MAG in p75NTR -/- mouse SC/DRG cocultures; format: cell-based; details: six days after initiation of myelination
Description: as §5

[8] = test system: sciatic nerve; assay: Electron microscopy of myelin ultrastructure in developing sciatic nerve of injected newborn mice; format: in vivo, mouse
Description: as §4
Electron Microscopy. Electron microscopy was performed by the Electron Microscopy Facility in the Department of Microbiology and Immunology (Stanford University, CA). Processing of the sciatic nerve was accomplished by fixation in 2% glutaraldehyde and 4% paraformaldehyde solution in PBS, followed by post-fixation in 1% OSO4. […] Finally, samples were infiltrated and embedded in pure epoxy.

[9] = 100 ng/ml added at day of induction, analysed after 6 days of induction
[10] = 3 μg at P1, reinjected 2 days later, nerves at P5, vs contralateral saline
[11] = 3 μg at P1, reinjected, nerves at P5

For COC(=O)[C@@]1(O)C[C@H]2O[C@]1(C)n1c3ccccc3c3c4c(c5c6ccccc6n2c5c31)C(=O)NC4 [K252a, K-252a, reference compound], the “accumulation of myelin proteins MAG and P0” value ([1]; rat SC/DRG cocultures treated for 6 days from induction) was “increase in myelin protein accumulation”, the “formation of mature myelin internodes (P0 immunocytochemistry)” value ([2]; rat SC/DRG cocultures, Example 2) was “increase” and the “neuronal or glial survival” value [3] was “does not affect neuronal or glial survival”.

With “NT3: neurotrophin-3, gift from Regeneron Pharmaceuticals” the “diminished expression of MAG” value [1, 9] was roughly 2 fold, the “diminished expression of P0” value [1, 9] was roughly 3 fold and the “Schwann cell proliferation and morphology of ensheathed Schwann cells” value [2] was “Neither BDNF nor NT3 caused any changes”. The “cell death (neurofilament and nuclear staining)” value [2] was “no sign of increased cell death”, the “formation of mature myelin internodes (P0 immunostaining)” value ([2]; NT3 100 ng/ml) was “inhibited the appearance of myelin internodes” and the “thickness and length of detected internodes vs control cultures” value ([2]; NT3 100 ng/ml, TrkB-Fc 1 μg/ml) was “significantly thinner and shorter in length”. For the same molecule, the “inhibition of MAG and P0 expression in the sciatic nerves” value ([4]; 3 μg s.c., mice treated for 2 days, vs contralateral leg) was roughly 25%, the “P0 and MAG protein expression, wild-type mice” value [4] was “inhibited” and the “P0 and MAG protein expression, p75NTR -/- mice” value [5] was “inhibited”. The “myelin protein expression (P0, MAG), wild-type cocultures” value [6] was “inhibited” and the “myelin protein expression (P0, MAG), p75NTR -/- cocultures” value [7] was “inhibited”.

B1: BDNF: neurotrophin brain-derived neurotrophic factor, gift from Regeneron Pharmaceuticals (protein, UniProt P23560 19-247, looked up)
Neurotrophic factor BDNF …: APMKEANIRGQGGLAYPGVRTHGTLESVNGPKAGSRGLTSLADTFEHVIEELLDEDQKVRPNEENNKDADLYTSRVMLSSQVPLEPPLLFLLEEYKNYLDAANMSMRVRRHSDPARRGELSVCDSISEWVTAADKKTAVDMSGGTVTVLEKVPVSKGQLKQYFYETKCNPMGYTKEGCRGIDKRHWNSQCRTTQSYVRALTMDSKKRIGWRFIRIDTSCVCTLTIKRGR
For B1, the “enhancement of MAG expression over control cultures” value [1, 9] was roughly 2 fold, the “enhancement of P0 expression over control cultures” value [1, 9] was roughly 1.5 fold and the “modulation of myelination (P0 and MAG) in the presence of K252a” value ([1]; in combination with K252a, 6 days) was “still able to modulate myelination”. The “Schwann cell proliferation and morphology of ensheathed Schwann cells” value [2] was “Neither BDNF nor NT3 caused any changes”, the “cell death (neurofilament and nuclear staining)” value [2] was “no sign of increased cell death” and the “formation of mature myelin internodes (P0 immunostaining)” value ([2]; NT3 100 ng/ml) was “produced an enhancement in myelin formation”. The “enhancement of MAG and P0 expression in the sciatic nerves” value ([4]; 3 μg s.c., 1-day-old mouse pups, vs saline-injected contralateral leg) was “more than 50%”, the “P0 and MAG protein expression, wild-type mice” value [4] was “enhanced P0 and MAG protein expression” and the “P0 and MAG expression in sciatic nerve” value ([4]; s.c. injection of newborn mice, nerves isolated four days later (Example 2)) was “enhanced P0 and MAG expression”. The “decrease in ensheathed axons” value [8, 10] was 2 fold, the “number of myelinated axons” value [8, 10] was “significant correlative increase in the number of myelinated axons” and the “more wraps of myelin on average than control nerves” value [8, 11] was 25%. For the same molecule, the “percentage of myelinated axons with more than 25 wraps of myelin” value [8, 11] was “more than 30%”, the “thickness of the myelin sheath (number of lamellae distribution) vs contralateral control nerve” value ([8]; newborn mice, sciatic nerve) was “significantly thicker” and the “total number of axons vs contralateral control nerves” value ([8]; ultrastructural studies) was “did not reveal any differences in the total number of axons”. The “P0 and MAG protein expression, p75NTR -/- mice” value [5] was “neither BDNF nor TrkB-Fc were able to modulate myelin protein expression”, the “myelin protein expression (P0, MAG), wild-type cocultures” value [6] was “enhanced” and the “myelin protein expression (P0, MAG), p75NTR -/- cocultures” value [7] was “neither BDNF nor TrkB-Fc had any effect”.
